Bounds are passed on as bounds.

The record followed here is the Immune Epitope Database (IEDB).

Assay [1] concerns the target HLA-C*03:03. Kind of assay: IEDB peptide-MHC binding, purified MHC/direct/fluorescence; filed as Kd, often an IC50 or EC50 that approximates it; ≥ and ≤ were set here for values at or beyond the usual limits of such assays. The note with it: source organism: Mycobacterium tuberculosis variant bovis BCG str. Pasteur 1173P2.
Assay [2] deals with HLA-C*05:01. The assay is described as above. The note with it: source organism: Mycobacterium tuberculosis variant bovis BCG str. Pasteur 1173P2.
For assay [3], the target named is HLA-A*02:12. Nature of the assay: IEDB peptide-MHC binding, purified MHC/competitive/fluorescence; filed as Kd, often an IC50 or EC50 that approximates it; ≥ and ≤ were set here for values at or beyond the usual limits of such assays.
Assay [4] concerns the target HLA-A*02:16. The description is as above.
Assay [5] addresses HLA-A*02:03. The assay is described as above.
Assay [6] concerns the target HLA-A*02:06. Described as above.
Assay [7] addresses HLA-A*02:19. The description is as above.
For assay [8], the target named is HLA-A*69:01. Described as above.
The target of assay [9] is HLA-A*02:11. The assay is described as above.
In assay [10] the target is HLA-B*44:02. Kind of assay: IEDB peptide-MHC binding, purified MHC/direct/fluorescence; filed as Kd, often an IC50 or EC50 that approximates it; ≥ and ≤ were set here for values at or beyond the usual limits of such assays.
For assay [11], the target named is HLA-A*02:01. Described as above.
In assay [12] the target is HLA-B*08:01. The description is as above.
Assay [13] addresses HLA-B*27:05. The assay is described as above.
Assay [14] deals with HLA-A*26:01. Described as above.
The target in assay [15] is HLA-B*07:02. The assay is described as above. The note with it: source organism: Vibrio cholerae.
In assay [16] the target is HLA-B*15:01. Described as above.
The target of assay [17] is HLA-A*03:01. The description is as above.
Assay [18] concerns the target HLA-A*11:01. The assay is described as above.
In assay [19] the target is HLA-A*01:01. Described as above.
Assay [20] addresses HLA-B*40:01. The assay is described as above.
Assay [21] has as its target HLA-B*58:01. The assay is described as above.
For assay [22], the target named is HLA-A*30:01. The assay is described as above.
For assay [23], the target named is HLA-A*69:01. Described as above.
Assay [24] concerns the target HLA-B*35:01. Described as above.
In assay [25] the target is HLA-A*31:01. The assay is described as above. The note with it: source organism: Vibrio cholerae.
Assay [26] addresses HLA-A*24:03. The description is as above. The note with it: source organism: Giardia lamblia ATCC 50803.
Assay [27] addresses HLA-A*29:02. Kind of assay: IEDB peptide-MHC binding, purified MHC/competitive/fluorescence; filed as Kd, often an IC50 or EC50 that approximates it; ≥ and ≤ were set here for values at or beyond the usual limits of such assays. The note with it: source organism: Yersinia mollaretii ATCC 43969.
The target in assay [28] is HLA-A*02:01. The description is as above.
Assay [29] concerns the target HLA-B*18:01. The assay is described as above. The note with it: source organism: Yersinia mollaretii ATCC 43969.
Assay [30] addresses HLA-B*27:03. The description is as above. The note with it: source organism: Yersinia mollaretii ATCC 43969.
The target in assay [31] is HLA-A*68:02. Described as above. The note with it: source organism: Yersinia mollaretii ATCC 43969.
Assay [32] concerns the target HLA-A*26:01. The description is as above. The note with it: source organism: Yersinia mollaretii ATCC 43969.
Assay [33] has as its target HLA-B*51:01. The description is as above. The note with it: source organism: Yersinia mollaretii ATCC 43969.
Assay [34] has as its target HLA-B*15:01. The description is as above. The note with it: source organism: Yersinia mollaretii ATCC 43969.
In assay [35] the target is HLA-A*03:01. The description is as above. The note with it: source organism: Yersinia mollaretii ATCC 43969.
In assay [36] the target is HLA-B*15:17. The description is as above. The note with it: source organism: Yersinia mollaretii ATCC 43969.
In assay [37] the target is HLA-A*24:03. Described as above. The note with it: source organism: Yersinia mollaretii ATCC 43969.
Assay [38] concerns the target HLA-B*46:01. Described as above. The note with it: source organism: Yersinia mollaretii ATCC 43969.
Assay [39] has as its target HLA-B*57:01. Described as above. The note with it: source organism: Yersinia mollaretii ATCC 43969.
Assay [40] concerns the target HLA-B*39:01. Described as above. The note with it: source organism: Yersinia mollaretii ATCC 43969.
The target in assay [41] is HLA-B*58:01. The description is as above. The note with it: source organism: Mycobacterium tuberculosis C.
Setting [42] is: source organism: Mycobacterium tuberculosis variant bovis BCG str. Pasteur 1173P2.
The mark [43] stands for this setting: source organism: Vibrio cholerae.
Setting [44] is: source organism: Giardia lamblia ATCC 50803.
The mark [45] stands for this setting: source organism: Yersinia mollaretii ATCC 43969.
Where [46] appears, read: source organism: Human immunodeficiency virus 1.

The term Kd denotes the equilibrium constant for the complex coming apart. Higher therefore signals weaker binding. As to YLAEGHACL, the Kd is 0.002 µM in [1]; 0.151 µM in assay [2]; 0.0026 µM in assay [3] (setting [42]); at most 0.001 µM in [4] (setting [42]); at most 0.001 µM in assay [5] (setting [42]); at most 0.001 µM in assay [6] (setting [42]). Besides, the values for the Kd in [7] (setting [42]), in assay [8] (setting [42]) and in [9] (setting [42]) were 0.0033 µM, 0.378 µM and at most 0.001 µM, respectively.

For the sequence GEHWLGRIW, the Kd in assay [10] (setting [43]) is 3.83 µM; in assay [11] (setting [43]) it was at least 20 µM; in assay [12] (setting [43]), at least 20 µM; in [13] (setting [43]), 13.1 µM; in assay [14] (setting [43]) it was at least 20 µM; in [15], at least 20 µM. The equilibrium dissociation constant (Kd) was at least 20 µM in assay [16] (setting [43]); at least 20 µM in assay [17] (setting [43]); at least 20 µM in [18] (setting [43]); at least 20 µM in [19] (setting [43]); 0.858 µM in [20] (setting [43]); 19.4 µM in assay [21] (setting [43]). Besides, the dissociation constant Kd in assay [22] (setting [43]) is at least 20 µM; in [23] (setting [43]), at least 20 µM; in [24] (setting [43]), at least 10 µM; in [25], at least 20 µM.

As to SYPPPPASF, the Kd was at least 20 µM in [10] (setting [44]); at least 20 µM in [11] (setting [44]); at least 20 µM in assay [12] (setting [44]); at least 20 µM in assay [13] (setting [44]); at least 20 µM in [14] (setting [44]); at least 10 µM in assay [16] (setting [44]). In addition, the equilibrium dissociation constant (Kd) in assay [17] (setting [44]) was at least 20 µM; in assay [26], 0.00084 µM; in assay [18] (setting [44]), at least 20 µM; in assay [19] (setting [44]), at least 20 µM; in assay [20] (setting [44]), at least 20 µM; in assay [21] (setting [44]), at least 20 µM. Moreover, the dissociation constant Kd in [22] (setting [44]) was at least 44.4 µM; in [23] (setting [44]), at least 20 µM; in [24] (setting [44]) it was 1.59 µM.

Turning to DEQEFFYSQ, the Kd in assay [27] is at least 20 µM; in [3] (setting [45]), at least 20 µM; in assay [4] (setting [45]), at least 20 µM; in [28] (setting [45]), at least 20 µM; in assay [29], 0.0003 µM; in [30], at least 20 µM. Moreover, the equilibrium dissociation constant (Kd) in assay [31], in [32], in assay [5] (setting [45]), in assay [33], in [34] and in assay [35] was at least 20 µM each time. Further, the Kd in assay [36], in [37], in assay [38], in [39], in [7] (setting [45]) and in assay [8] (setting [45]) was at least 20 µM each time. Besides, the Kd in assay [40] and in assay [9] (setting [45]) was at least 20 µM throughout.

For the sequence RSFRIHILF, the dissociation constant Kd in assay [16] (source organism: Mycobacterium tuberculosis) was at least 10 µM; in [41] it was 4.4 µM.

Regarding FLGKIWSS, the dissociation constant (Kd) in [3] (setting [46]) was 0.0005 µM; in [4] (setting [46]), at most 0.0001 µM; in [28] (setting [46]), 0.0075 µM; in [5] (setting [46]) it was 0.00138 µM; in assay [6] (setting [46]), at most 0.0001 µM; in assay [7] (setting [46]), 0.00233 µM. Further, the Kd in [8] (setting [46]) is at least 5 µM; in assay [9] (setting [46]), at most 0.0001 µM.
